B1: Protein TIFY 7 (Arabidopsis thaliana (Mouse-ear cress)), Q8W4J8 (parent)
chain: MERDFLGLSDKQYLSNNVKHEVNDDAVEERGLSTKAAREWGKSKVFATSSFMPSSDFQEAKAFPGAYQWGSVSAANVFRRCQFGGAFQNATPLLLGGSVPLPTHPSLVPRVASSGSSPQLTIFYGGTISVFNDISPDKAQAIMLCAGNGLKGETGDSKPVREAERMYGKQIHNTAATSSSSATHTDNFSRCRDTPVAATNAMSMIESFNAAPRNMIPSVPQARKASLARFLEKRKERLMSAMPYKKMLLDLSTGESSGMNYSSTSPT
B2: Protein TIFY 7 (Arabidopsis thaliana (Mouse-ear cress)), Q8W4J8 (parent)
chain: B1 chain
partner: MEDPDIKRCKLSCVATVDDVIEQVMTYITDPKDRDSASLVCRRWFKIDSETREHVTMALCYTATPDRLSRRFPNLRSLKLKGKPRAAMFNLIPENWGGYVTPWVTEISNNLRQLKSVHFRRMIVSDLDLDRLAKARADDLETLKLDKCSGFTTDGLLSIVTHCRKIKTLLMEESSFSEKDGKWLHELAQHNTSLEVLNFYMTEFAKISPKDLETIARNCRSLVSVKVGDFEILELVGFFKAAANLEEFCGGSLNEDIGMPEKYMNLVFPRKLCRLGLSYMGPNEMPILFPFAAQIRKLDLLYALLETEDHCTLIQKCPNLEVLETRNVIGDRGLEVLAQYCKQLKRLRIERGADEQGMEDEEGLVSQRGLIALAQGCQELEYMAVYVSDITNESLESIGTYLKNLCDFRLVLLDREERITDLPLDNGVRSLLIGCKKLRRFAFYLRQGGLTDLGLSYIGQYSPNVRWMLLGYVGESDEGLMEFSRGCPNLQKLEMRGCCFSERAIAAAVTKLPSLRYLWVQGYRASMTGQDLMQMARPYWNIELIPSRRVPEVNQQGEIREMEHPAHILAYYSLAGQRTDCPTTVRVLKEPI

Variants of: B1
Settings: with myc2_arath MYC2, Q39204
myc2_arath MYC2, Q39204, sequence (Q39204 whole entry): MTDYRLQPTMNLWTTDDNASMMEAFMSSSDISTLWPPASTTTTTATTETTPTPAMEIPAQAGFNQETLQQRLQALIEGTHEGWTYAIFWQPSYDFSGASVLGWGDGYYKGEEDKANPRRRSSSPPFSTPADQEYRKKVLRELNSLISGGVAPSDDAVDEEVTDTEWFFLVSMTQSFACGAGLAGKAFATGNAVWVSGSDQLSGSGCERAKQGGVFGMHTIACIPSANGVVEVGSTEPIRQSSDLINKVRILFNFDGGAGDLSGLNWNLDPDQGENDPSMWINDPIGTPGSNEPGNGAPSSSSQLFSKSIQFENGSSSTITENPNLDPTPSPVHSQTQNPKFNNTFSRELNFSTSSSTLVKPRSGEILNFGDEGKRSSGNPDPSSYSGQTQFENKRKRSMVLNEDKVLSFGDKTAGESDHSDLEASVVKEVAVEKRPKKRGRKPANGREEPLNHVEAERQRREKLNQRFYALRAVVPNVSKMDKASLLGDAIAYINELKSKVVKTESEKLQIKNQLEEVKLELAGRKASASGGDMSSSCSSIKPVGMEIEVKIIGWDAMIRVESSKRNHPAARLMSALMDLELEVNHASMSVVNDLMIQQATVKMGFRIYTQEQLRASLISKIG

Row | Variant | effect of a mutation on the interaction
1 | MERDFLGLSDKQYLSNNVKHEVNDDAVEERGLSTKAAREWGKSKVFATSSFMPSSDFQEAKAFPGAYQWGSVSAANVFRRCQFGGAFQNATPLLLGGSVPLPTHPSLVPRVASSGSSPQLTIFYGGTISVFNDISPDKAQAIMLCAGNGLKGETGDSKPVREAERMYGKQIHNTAATSSSSATHTDNFSRCRDTPVAATNAMSMIESFNAAPRNMIPSVPQARKASLARFLEKAKERLMSAMPYKKMLLDLSTGESSGMNYSSTSPT [R234A] | disrupting interaction strength
2 | MERDFLGLSDKQYLSNNVKHEVNDDAVEERGLSTKAAREWGKSKVFATSSFMPSSDFQEAKAFPGAYQWGSVSAANVFRRCQFGGAFQNATPLLLGGSVPLPTHPSLVPRVASSGSSPQLTIFYGGTISVFNDISPDKAQAIMLCAGNGLKGETGDSKPVREAERMYGKQIHNTAATSSSSATHTDNFSRCRDTPVAATNAMSMIESFNAAPRNMIPSVPQARKASLARFLEAAAERLMSAMPYKKMLLDLSTGESSGMNYSSTSPT [K233A;R234A;K235A] | disrupting interaction strength
3 | MERDFLGLSDKQYLSNNVKHEVNDDAVEERGLSTKAAREWGKSKVFATSSFMPSSDFQEAKAFPGAYQWGSVSAANVFRRCQFGGAFQNATPLLLGGSVPLPTHPSLVPRVASSGSSPQLTIFYGGTISVFNDISPDKAQAIMLCAGNGLKGETGDSKPVREAERMYGKQIHNTAATSSSSATHTDNFSRCRDTPVAATNAMSMIESFNAAPRNMIPSVPQARKASLARFLEAAKERLMSAMPYKKMLLDLSTGESSGMNYSSTSPT [K233A;R234A] | disrupting interaction strength

Variants of: B2
Settings: with coi1_arath COI1, O04197

Row | Variant | effect of a mutation on the interaction
4 | MERDFLGLSDKQYLSNNVKHEVNDDAVEERGLSTKAAREWGKSKVFATSSFMPSSDFQEAKAFPGAYQWGSVSAANVFRRCQFGGAFQNATPLLLGGSVPLPTHPSLVPRVASSGSSPQLTIFYGGTISVFNDISPDKAQAIMLCAGNGLKGETGDSKPVREAERMYGKQIHNTAATSSSSATHTDNFSRCRDTPVAATNAMSMIESFNAAPRNMIPSVPQAAAASLARFLEKRKERLMSAMPYKKMLLDLSTGESSGMNYSSTSPT [R223A;K224A] | disrupting interaction strength
5 | MERDFLGLSDKQYLSNNVKHEVNDDAVEERGLSTKAAREWGKSKVFATSSFMPSSDFQEAKAFPGAYQWGSVSAANVFRRCQFGGAFQNATPLLLGGSVPLPTHPSLVPRVASSGSSPQLTIFYGGTISVFNDISPDKAQAIMLCAGNGLKGETGDSKPVREAERMYGKQIHNTAATSSSSATHTDNFSRCRDTPVAATNAMSMIESFNAAPRNMIPSVPQARKASLARFLEAAKERLMSAMPYKKMLLDLSTGESSGMNYSSTSPT [K233A;R234A] | disrupting interaction strength
6 | MERDFLGLSDKQYLSNNVKHEVNDDAVEERGLSTKAAREWGKSKVFATSSFMPSSDFQEAKAFPGAYQWGSVSAANVFRRCQFGGAFQNATPLLLGGSVPLPTHPSLVPRVASSGSSPQLTIFYGGTISVFNDISPDKAQAIMLCAGNGLKGETGDSKPVREAERMYGKQIHNTAATSSSSATHTDNFSRCRDTPVAATNAMSMIESFNAAPRNMIPSVPQARKASLARFLEKAKERLMSAMPYKKMLLDLSTGESSGMNYSSTSPT [R234A] | disrupting interaction strength
7 | MERDFLGLSDKQYLSNNVKHEVNDDAVEERGLSTKAAREWGKSKVFATSSFMPSSDFQEAKAFPGAYQWGSVSAANVFRRCQFGGAFQNATPLLLGGSVPLPTHPSLVPRVASSGSSPQLTIFYGGTISVFNDISPDKAQAIMLCAGNGLKGETGDSKPVREAERMYGKQIHNTAATSSSSATHTDNFSRCRDTPVAATNAMSMIESFNAAPRNMIPSVPQARKASLARFLEAAAERLMSAMPYKKMLLDLSTGESSGMNYSSTSPT [K233A;R234A;K235A] | disrupting interaction strength
